Measurements: article PMC11793827 (2025)

B1: AP1A5 (Fc fusion)
chain: EVQLQASGGGFVQPGGSLRLSCAASGSTASHYTMGWFRQAPGKEREFVSAISSGRDHAKQYADSVKGRFTISRDNSKNTVYLQMNSLRAEDTATYYCAYEEINATQKDTLYWGQGTQVTVSS
B2: AP1D4 (Fc fusion)
chain: EVQLQASGGGFVQPGGSLRLSCAASGHTFDAHRMGWFRQAPGKEREFVSAISSWGQSSTYYADSVKGRFTISRDNSKNTVYLQMNSLRAEDTATYYCAQTDEGNQYVYWGQGTQVTVSS
B3: DP4F2 (VHH)
VHH: EVQLQASGGGFVQPGGSLRLSCAASGTTYSERVMGWFRQAPGKEREFVSAISSGQSDQTYYADSVKGRFTISRDNSKNTVYLQMNSLRAEDTATYYCAPFAGDANLPREWYWGQGTQVTVSS
B4: BP2A6 (VHH)
VHH: EVQLQASGGGFVQPGGSLRLSCAASGQTFSHYIMGWFRQAPGKEREFVSAISAGQGHATYYADSVKGRFTISRDNSKNTVYLQMNSLRAEDTATYYCAKYQDTIAPLYWGQGTQVTVSS
B5: AP1C3 (VHH)
VHH: EVQLQASGGGFVQPGGSLRLSCAASGRTYRGYSMGWFRQAPGKEREFVSAISSWSDDWTAYADSVKGRFTISRDNSKNTVYLQMNSLRAEDTATYYCAWQYIDEIQYYWGQGTQVTVSS

Each binder was assayed against WT SARS-CoV-2 RBD (SARS-CoV-2, UniProt P0DTC2 14-1211) (assay: ELISA).

Row | Binder | Kd
1 | B1 | 1.19 nM
2 | B2 | 0.97 nM
3 | B3 | 10.7 nM
4 | B4 | 0.06 nM
5 | B5 | 0.08 nM
